This passage reports Kd results from patent US20150275192.

For series [1], the target named is L1-CAM (CD171) extracellular domain (UniProt P32004). In words: FP. Conditions: 5' DNA primer fd; remainder A = alpha-thio-dA, C = gemcitabine (2',2'-difluoro-dC), G = FANA-G, T = floxuridine (5-fluoro-dU); exact value only in figure.
Series [2] addresses T1, CD30 extracellular domain (UniProt P28908).
T1 sequence: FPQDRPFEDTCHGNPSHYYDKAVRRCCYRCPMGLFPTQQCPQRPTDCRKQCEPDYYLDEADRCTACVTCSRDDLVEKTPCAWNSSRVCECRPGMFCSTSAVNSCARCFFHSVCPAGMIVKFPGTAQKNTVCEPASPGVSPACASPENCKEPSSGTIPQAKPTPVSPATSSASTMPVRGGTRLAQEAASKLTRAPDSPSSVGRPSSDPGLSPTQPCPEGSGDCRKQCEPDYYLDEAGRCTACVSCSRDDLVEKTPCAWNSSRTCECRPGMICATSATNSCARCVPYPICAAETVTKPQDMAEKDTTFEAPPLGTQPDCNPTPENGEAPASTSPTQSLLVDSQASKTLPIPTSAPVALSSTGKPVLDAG
Kind of series: FP. Conditions: 5' DNA primer fd; remainder A = alpha-thio-dA, C = gemcitabine (2',2'-difluoro-dC), G = FANA-G, T = floxuridine (5-fluoro-dU); exact value only in figure.

A value given as a limit tells only on which side of the number the result lay.

Chain of L1-CAM (CD171) extracellular domain (P32004 20-1120): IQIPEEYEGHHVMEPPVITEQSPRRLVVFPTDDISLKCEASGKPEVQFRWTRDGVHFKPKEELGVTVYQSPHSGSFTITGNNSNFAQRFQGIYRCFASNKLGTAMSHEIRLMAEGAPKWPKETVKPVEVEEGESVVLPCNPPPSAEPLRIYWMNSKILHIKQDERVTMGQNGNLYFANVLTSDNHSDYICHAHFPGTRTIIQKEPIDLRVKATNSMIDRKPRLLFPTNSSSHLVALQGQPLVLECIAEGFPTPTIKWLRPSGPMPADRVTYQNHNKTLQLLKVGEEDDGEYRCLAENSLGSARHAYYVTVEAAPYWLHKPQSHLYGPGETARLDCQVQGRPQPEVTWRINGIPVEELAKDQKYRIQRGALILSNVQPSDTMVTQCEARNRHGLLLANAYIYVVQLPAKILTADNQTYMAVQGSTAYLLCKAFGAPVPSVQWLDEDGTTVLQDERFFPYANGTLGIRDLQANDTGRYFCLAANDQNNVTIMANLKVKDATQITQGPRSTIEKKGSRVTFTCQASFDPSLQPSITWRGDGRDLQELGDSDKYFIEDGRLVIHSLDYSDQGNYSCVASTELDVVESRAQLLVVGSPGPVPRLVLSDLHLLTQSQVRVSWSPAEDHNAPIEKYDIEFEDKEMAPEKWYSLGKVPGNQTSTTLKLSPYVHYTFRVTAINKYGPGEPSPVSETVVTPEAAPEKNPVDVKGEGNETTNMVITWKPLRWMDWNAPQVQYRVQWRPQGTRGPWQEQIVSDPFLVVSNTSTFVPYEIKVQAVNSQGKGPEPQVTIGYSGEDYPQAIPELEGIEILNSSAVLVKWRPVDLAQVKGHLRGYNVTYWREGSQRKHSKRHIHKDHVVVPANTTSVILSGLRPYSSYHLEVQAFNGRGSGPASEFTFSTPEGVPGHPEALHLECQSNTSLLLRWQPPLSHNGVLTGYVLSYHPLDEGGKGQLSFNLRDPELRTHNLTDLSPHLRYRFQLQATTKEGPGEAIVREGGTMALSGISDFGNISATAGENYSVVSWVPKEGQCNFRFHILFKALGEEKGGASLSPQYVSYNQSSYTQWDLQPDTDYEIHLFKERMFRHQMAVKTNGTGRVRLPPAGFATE

“CCCCTTATTAGCGTTTGCCAACGACGCGACGCCGTTCAACCAGATATTGAAGCAGAACGCAAAAAGA [L1-CAM_Icore]” yielded a Kd in series [1] of less than 0.1 µM.
For “CCCCTTATTAGCGTTTGCCAGCGACGCCGTTCAACCAGATATTGAAGCAGAACGCAAAAAGAGAGATGAGATTGAGGCT [L1CAM_I1]”, the Kd in series [1] was less than 0.1 µM.
Sequence “CCCCTTATTAGCGTTTGCCATAGATGTGGTAGAAGTCGTCATTTGGCGAGAAAGCTCAGTCTCAGG [CD30_I3]” had a Kd in series [2] greater than 0.1 µM.
With “CCCCTTATTAGCGTTTGCCATAGATGTGGTAGAAGTCGTCATTTGGCGAGAAAGCTCAGTCTCAGG [L1-CAM_I6]”, the Kd in series [1] is less than 0.1 µM.
As for “CCCCTTATTAGCGTTTGCCATTTCATGGTATTGATAAAGCTGTTGCCGATACTTGGAACAATTTCT [CD30_I30]”, the Kd in series [2] is less than 0.1 µM.
